Measurements as given in publication PMC3407216.

Assays:
[1] = target: MMP-2–cleaved fibronectin (human)
[2] = target: Matrix metalloproteinase-2 (human (endogenous in tumor cells)) (UniProt P08253)
Sequence of UniProt P08253 (P08253 30-660): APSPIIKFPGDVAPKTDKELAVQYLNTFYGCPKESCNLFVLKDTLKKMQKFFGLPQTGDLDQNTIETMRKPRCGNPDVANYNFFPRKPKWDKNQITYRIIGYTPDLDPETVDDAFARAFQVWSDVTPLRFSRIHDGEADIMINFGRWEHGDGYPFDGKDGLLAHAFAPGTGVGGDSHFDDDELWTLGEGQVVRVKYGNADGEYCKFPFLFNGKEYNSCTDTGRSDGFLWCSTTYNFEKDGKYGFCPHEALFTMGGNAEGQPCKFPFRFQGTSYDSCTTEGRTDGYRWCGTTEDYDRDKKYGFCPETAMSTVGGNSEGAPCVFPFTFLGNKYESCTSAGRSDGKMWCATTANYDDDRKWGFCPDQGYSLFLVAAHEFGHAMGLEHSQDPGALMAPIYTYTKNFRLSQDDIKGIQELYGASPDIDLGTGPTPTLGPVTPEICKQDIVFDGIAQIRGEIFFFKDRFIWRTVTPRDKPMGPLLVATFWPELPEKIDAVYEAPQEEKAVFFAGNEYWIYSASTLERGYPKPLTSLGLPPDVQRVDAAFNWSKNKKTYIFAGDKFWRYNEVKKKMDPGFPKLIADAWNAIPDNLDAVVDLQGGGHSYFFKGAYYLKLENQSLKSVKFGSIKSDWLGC

Sequence of αvβ3 integrin (P05106 whole entry, looked up): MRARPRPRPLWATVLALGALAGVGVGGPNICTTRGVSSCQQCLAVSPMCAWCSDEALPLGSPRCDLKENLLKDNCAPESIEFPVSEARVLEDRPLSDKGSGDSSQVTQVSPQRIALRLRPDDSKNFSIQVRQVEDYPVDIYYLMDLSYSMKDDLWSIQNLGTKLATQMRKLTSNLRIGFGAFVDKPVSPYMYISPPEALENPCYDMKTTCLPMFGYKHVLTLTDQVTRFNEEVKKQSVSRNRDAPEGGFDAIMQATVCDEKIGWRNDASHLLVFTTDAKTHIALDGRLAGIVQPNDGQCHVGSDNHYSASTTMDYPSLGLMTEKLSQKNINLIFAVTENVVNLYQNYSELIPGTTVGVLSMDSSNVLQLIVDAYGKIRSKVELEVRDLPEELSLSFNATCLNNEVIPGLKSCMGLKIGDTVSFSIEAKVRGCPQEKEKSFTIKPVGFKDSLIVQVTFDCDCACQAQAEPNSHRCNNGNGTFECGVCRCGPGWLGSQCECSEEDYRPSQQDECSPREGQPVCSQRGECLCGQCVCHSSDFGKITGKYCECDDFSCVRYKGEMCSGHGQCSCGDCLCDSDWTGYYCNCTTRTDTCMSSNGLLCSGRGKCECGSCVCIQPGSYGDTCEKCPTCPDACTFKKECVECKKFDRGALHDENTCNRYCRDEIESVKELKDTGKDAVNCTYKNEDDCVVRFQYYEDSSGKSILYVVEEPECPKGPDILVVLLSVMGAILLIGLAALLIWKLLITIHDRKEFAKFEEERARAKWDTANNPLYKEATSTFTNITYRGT

αvβ3 integrin (from UniProt P05106 27-788) (receptor)
adhesion of M21 melanoma cells (30 min) to plates coated with MMP-2–cleaved fibronectin compared with full-length fibronectin; no obvious changes with M21-L cells that lack αvβ3 integrin [1]: > 34%
static adhesion of fluorescently stained A375 cells to wells coated with APMA-activated recombinant human MMP-2, compared with cells blocked with RGD peptides [2]: > 59%
